In patent US20050244864A1, “Development and use of fluorescent probes of unbound analytes” (priority 2004, published 2005):
Substitutions are numbered along the chain they refer to. Names may count otherwise.

Columns and labels:
Type in all cases: binding
[1] = Probe fluorescence ratio response to oleate:BSA complex, relative to ADIFAB2 (ΔR/ΔRAD2); settings: fluorescence response (R-Ro) relative to ADIFAB2; oleate
Method in brief: (§1)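 Mutant probes were screened against fatty acid:BSA complexes made by adding fatty acid sodium salts at pH 11 to BSA in HEPES, titrated until ADIFAB2 gave ΔR ≈0.4 ([FFAu] 100–1000 nM). Wells held 6 μM BSA; excitation 375 nm, emission 550/457 nm, background-subtracted.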

[2] = Probe fluorescence ratio response to arachidonate:BSA complex, relative to ADIFAB2 (ΔR/ΔRAD2); settings: fluorescence response (R-Ro) relative to ADIFAB2; arachidonate
Method in brief: as §1

[3] = Probe fluorescence ratio response to linolenate:BSA complex, relative to ADIFAB2 (ΔR/ΔRAD2); settings: fluorescence response (R-Ro) relative to ADIFAB2; linolenate
Method in brief: as §1

[4] = Probe fluorescence ratio response to stearate:BSA complex, relative to ADIFAB2 (ΔR/ΔRAD2); settings: fluorescence response (R-Ro) relative to ADIFAB2
[5] = Probe fluorescence ratio response to linoleate:BSA complex, relative to ADIFAB2 (ΔR/ΔRAD2); settings: fluorescence response (R-Ro) relative to ADIFAB2; linoleate
Method in brief: as §1

[6] = Probe fluorescence ratio response to palmitoleate:BSA complex, relative to ADIFAB2 (ΔR/ΔRAD2); settings: fluorescence response (R-Ro) relative to ADIFAB2
[7] = Probe fluorescence ratio response to palmitate:BSA complex, relative to ADIFAB2 (ΔR/ΔRAD2); settings: fluorescence response (R-Ro) relative to ADIFAB2; palmitate
Method in brief: as §1

B1: L2P8F11: acrylodan-labeled rI-FABP-L72A mutein: M18 WT, G31 WT, F55 WT, A73 I (protein, UniProt P02693 2-132, looked up, variant L72A A73I)
Fatty acid-binding protein, …: AFDGTWKVDRNENYEKFMEKMGINVVKRKLGAHDNLKLTITQEGNKFTVKESSNFRNIDVVFELGVDFAYSAIDGTELTGTWTMEGNKLVGKFKRVDNGKELIAVREISGNELIQTYTYEGVEAKRIFKKE
modifications: acrylodan label
notes: acrylodan-labeled rI-FABP-L72A mutein: M18 WT, G31 WT, F55 WT, A73 I
ΔR/ΔRAD2 OA [1]: 0.0
ΔR/ΔRAD2 AA [2]: 0.4
ΔR/ΔRAD2 LNA [3]: 0.1
ΔR/ΔRAD2 SA [4]: 0.3
ΔR/ΔRAD2 LA [5]: 0.0
ΔR/ΔRAD2 POA [6]: 0.1
ΔR/ΔRAD2 PA [7]: 0.0

B2: L2P9E12: acrylodan-labeled rI-FABP-L72A mutein: M18 L, G31 WT, F55 L, A73 I (protein, UniProt P02693 2-132, looked up, variant M18L F55L L72A A73I)
Fatty acid-binding protein, …: B1 Fatty acid-binding protein, … with M18L, F55L
modifications: acrylodan label
notes: acrylodan-labeled rI-FABP-L72A mutein: M18 L, G31 WT, F55 L, A73 I
ΔR/ΔRAD2 OA [1]: 0.6
ΔR/ΔRAD2 AA [2]: 0.6
ΔR/ΔRAD2 LNA [3]: 0.9
ΔR/ΔRAD2 SA [4]: 0.4
ΔR/ΔRAD2 LA [5]: 0.7
ΔR/ΔRAD2 POA [6]: 0.8
ΔR/ΔRAD2 PA [7]: 1.1

B3: L2P22H10: acrylodan-labeled rI-FABP-L72A mutein: M18 I, G31 WT, F55 G, A73 M (protein, UniProt P02693 2-132, looked up, variant M18I F55G L72A A73M)
Fatty acid-binding protein, …: B1 Fatty acid-binding protein, … with M18I, F55G, I73M
modifications: acrylodan label
notes: acrylodan-labeled rI-FABP-L72A mutein: M18 I, G31 WT, F55 G, A73 M
ΔR/ΔRAD2 OA [1]: 0.6
ΔR/ΔRAD2 AA [2]: 0.9
ΔR/ΔRAD2 LNA [3]: 1.3
ΔR/ΔRAD2 SA [4]: 0.4
ΔR/ΔRAD2 LA [5]: 1.1
ΔR/ΔRAD2 POA [6]: 1.2
ΔR/ΔRAD2 PA [7]: 1.1

B4: L2P8B8: acrylodan-labeled rI-FABP-L72A mutein: M18 WT, G31 WT, F55 WT, A73 F (protein, UniProt P02693 2-132, looked up, variant L72A A73F)
Fatty acid-binding protein, …: B1 Fatty acid-binding protein, … with I73F
modifications: acrylodan label
notes: acrylodan-labeled rI-FABP-L72A mutein: M18 WT, G31 WT, F55 WT, A73 F
ΔR/ΔRAD2 OA [1]: 0.6
ΔR/ΔRAD2 AA [2]: 1.1
ΔR/ΔRAD2 LNA [3]: 1.8
ΔR/ΔRAD2 SA [4]: 0.4
ΔR/ΔRAD2 LA [5]: 1.2
ΔR/ΔRAD2 POA [6]: 2.4
ΔR/ΔRAD2 PA [7]: 1.1

B5: L2P16A3: acrylodan-labeled rI-FABP-L72A mutein: M18 I, G31 L, F55 WT, A73 G (protein, UniProt P02693 2-132, looked up, variant M18I G31L L72A A73G)
Fatty acid-binding protein, …: B1 Fatty acid-binding protein, … with M18I, G31L, I73G
modifications: acrylodan label
notes: acrylodan-labeled rI-FABP-L72A mutein: M18 I, G31 L, F55 WT, A73 G
ΔR/ΔRAD2 OA [1]: 0.6
ΔR/ΔRAD2 AA [2]: 1.0
ΔR/ΔRAD2 LNA [3]: 1.5
ΔR/ΔRAD2 SA [4]: 0.3
ΔR/ΔRAD2 LA [5]: 1.1
ΔR/ΔRAD2 POA [6]: 1.4
ΔR/ΔRAD2 PA [7]: 1.1

B6: L2P7F4: acrylodan-labeled rI-FABP-L72A mutein: M18 V, G31 V, F55 WT, A73 I (protein, UniProt P02693 2-132, looked up, variant M18V G31V L72A A73I)
Fatty acid-binding protein, …: B1 Fatty acid-binding protein, … with M18V, G31V
modifications: acrylodan label
notes: acrylodan-labeled rI-FABP-L72A mutein: M18 V, G31 V, F55 WT, A73 I
ΔR/ΔRAD2 OA [1]: 0.6
ΔR/ΔRAD2 AA [2]: 0.8
ΔR/ΔRAD2 LNA [3]: 1.5
ΔR/ΔRAD2 SA [4]: 0.3
ΔR/ΔRAD2 LA [5]: 1.1
ΔR/ΔRAD2 POA [6]: 1.3
ΔR/ΔRAD2 PA [7]: 1.3

B7: L2P21G3: acrylodan-labeled rI-FABP-L72A mutein: M18 I, G31 M, F55 M, A73 WT (protein, UniProt P02693 2-132, looked up, variant M18I G31M F55M L72A)
Fatty acid-binding protein, …: B1 Fatty acid-binding protein, … with M18I, G31M, F55M, I73A
modifications: acrylodan label
notes: acrylodan-labeled rI-FABP-L72A mutein: M18 I, G31 M, F55 M, A73 WT
ΔR/ΔRAD2 OA [1]: 0.6
ΔR/ΔRAD2 AA [2]: 1.0
ΔR/ΔRAD2 LNA [3]: 1.4
ΔR/ΔRAD2 SA [4]: 0.3
ΔR/ΔRAD2 LA [5]: 1.1
ΔR/ΔRAD2 POA [6]: 1.4
ΔR/ΔRAD2 PA [7]: 1.1

B8: L2P23G7: acrylodan-labeled rI-FABP-L72A mutein: M18 V, G31 F, F55 L, A73 WT (protein, UniProt P02693 2-132, looked up, variant M18V G31F F55L L72A)
Fatty acid-binding protein, …: B1 Fatty acid-binding protein, … with M18V, G31F, F55L, I73A
modifications: acrylodan label
notes: acrylodan-labeled rI-FABP-L72A mutein: M18 V, G31 F, F55 L, A73 WT
ΔR/ΔRAD2 OA [1]: 0.6
ΔR/ΔRAD2 AA [2]: 0.9
ΔR/ΔRAD2 LNA [3]: 1.2
ΔR/ΔRAD2 SA [4]: 0.4
ΔR/ΔRAD2 LA [5]: 1.0
ΔR/ΔRAD2 POA [6]: 1.4
ΔR/ΔRAD2 PA [7]: 1.0
